The text below walks through data of article PMC6642547, “HERA-GITRL activates T cells and promotes anti-tumor efficacy independent of FcγR-binding functionality” (Journal for Immunotherapy of Cancer, 2019).

This test deals with T1, HERA-GITRL (hexavalent TNF receptor agonist); single-chain GITRL-receptor-binding-domain fused to a silenced … (human, UniProt Q9UNG2 56-177; Q9UNG2 56-177; Q9UNG2 56-177).
T1 construct: glycine-serine based linker, 8 amino acids in length; GITRL (TNFSF18), human, second copy of E56-S177; GITRL (TNFSF18), human, third copy of E56-S177; also called hexavalent HERA-GITRL; scGITRL-RBD-Fc; not shown: Strep-Tag II, C-terminal, kept
The test is described as follows: not stated; binding to and dissociation from the GITR-Fc receptors measured in real time, equilibrium binding constants (KD) calculated; instrument and who was immobilised not told in what was shown. As to conditions: both partners purified.

T1 sequence (Q9UNG2 whole entry, the tested form may be a part, one chain of several): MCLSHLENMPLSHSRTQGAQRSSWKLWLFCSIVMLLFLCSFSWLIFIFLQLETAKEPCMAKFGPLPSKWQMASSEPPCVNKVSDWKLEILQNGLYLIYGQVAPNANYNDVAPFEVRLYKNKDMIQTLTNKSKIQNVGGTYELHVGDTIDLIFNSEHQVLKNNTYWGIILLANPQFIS

B1: cynomolgus monkey GITR-Fc (Fc fusion)
chain: QRPTGGPGCGPGRLLLGTGKDARCCRIHPTRCCGDYQGEECCSEWDCVCVQPEFHCGNPCCTTCQHHPCPSGQGVQPQGKFSFGFRCVDCALGTFSRGHDGHCKPWTDCTQFGFLTVFPGNKTHNAVCVPGSPPAEPPG
The Kd is the concentration at which binding is half-saturated. As for B1, the Kd is 0.602 nM.
